Experimental data: article PMC2879510

Molecular target: U1A-Myc-His (UniProt P09012 1-102)
Assay: competition

U1A-Myc-His, sequence (P09012 1-102): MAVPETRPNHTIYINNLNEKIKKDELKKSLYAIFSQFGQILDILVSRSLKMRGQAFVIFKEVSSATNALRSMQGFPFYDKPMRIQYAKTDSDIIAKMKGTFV

GGCAUAUCCAGUGCACCAGGGUAUGCC (structured_RNA) [hpIIΔDIS (U1 hpII Δ16/18A/10G)]: binds.
